In publication PMC6662305, “The basic helix‐loop‐helix transcription factor, OsPIL15, regulates grain size via directly targeting a purine permease gene OsPUP7 in rice”:

T1: OsPIL15-His (Oryza sativa L. cv. Nipponbare, UniProt Q0JNI9 1-637)
T1 sequence: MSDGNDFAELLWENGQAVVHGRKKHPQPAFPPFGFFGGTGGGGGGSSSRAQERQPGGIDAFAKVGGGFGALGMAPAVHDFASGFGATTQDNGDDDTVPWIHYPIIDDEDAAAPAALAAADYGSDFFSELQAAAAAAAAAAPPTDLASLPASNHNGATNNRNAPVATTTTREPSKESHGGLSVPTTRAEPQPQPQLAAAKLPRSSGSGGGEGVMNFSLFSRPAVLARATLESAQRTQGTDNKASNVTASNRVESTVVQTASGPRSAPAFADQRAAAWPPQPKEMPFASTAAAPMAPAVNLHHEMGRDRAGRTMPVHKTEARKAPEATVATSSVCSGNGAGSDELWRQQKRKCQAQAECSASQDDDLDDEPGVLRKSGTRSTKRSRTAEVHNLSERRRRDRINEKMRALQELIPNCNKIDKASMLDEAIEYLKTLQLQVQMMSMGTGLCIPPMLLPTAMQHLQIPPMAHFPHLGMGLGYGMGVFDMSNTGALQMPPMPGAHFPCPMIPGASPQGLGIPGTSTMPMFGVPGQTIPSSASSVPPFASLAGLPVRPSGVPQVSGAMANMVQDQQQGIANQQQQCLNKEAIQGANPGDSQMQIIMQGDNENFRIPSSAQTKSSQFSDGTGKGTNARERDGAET

B1: N1-box probe (dsDNA)
DNA 1: TCTAATGACACGCGAGCAAGTCC
DNA 2: GGACTTGCTCGCGTGTCATTAGA
B2: G-box probe (dsDNA)
DNA 1: TCTAATGACACGTGAGCAAGTCC
DNA 2: GGACTTGCTCACGTGTCATTAGA
B3: N2-box probe (dsDNA)
DNA 1: TCTAATGACACGAGAGCAAGTCC
DNA 2: GGACTTGCTCTCGTGTCATTAGA
B4: Mutant probe 1 (dsDNA)
DNA 1: AATACAGCCGCGACTATCTC
DNA 2: GAGATAGTCGCGGCTGTATT
B5: Mutant probe 2 (dsDNA)
DNA 1: AATACAGGCAGCCCTATCTC
DNA 2: GAGATAGGGCTGCCTGTATT

Experiments:
OsPIL15-His [1] = biological target: T1, OsPIL15-His; experiment: EMSA; strong signal; EMSA: Beyotime kit binding buffer (composition, salt and pH not stated), 30 min at room temperature, 6% native polyacrylamide gel; details: protein: recombinant; tags: His (pET28a); chain copies: 2; label: 3' biotin; blunt
OsPIL15-His [2] = biological target: T1, OsPIL15-His; experiment: EMSA; EMSA: Beyotime kit binding buffer (composition, salt and pH not stated), 30 min at room temperature, 6% native polyacrylamide gel; details: protein: recombinant; tags: His (pET28a); chain copies: 2; label: 3' biotin; blunt

Row | Binder | binding result (OsPIL15-His [1]) | binding result (OsPIL15-His [2])
1 | B1 | binds | 
2 | B2 |  | no binding
3 | B3 |  | no binding
4 | B4 |  | no binding
5 | B5 |  | no binding
